Results as given in article PMC10182836.

Biological target: H3-tailless nucleosomes (nucleosomes with the first 33 residues of H3 removed) (human) (UniProt P04908)

Row | fold reduction of S1/2 on H3-tailless nucleosomes | Substance
1 | 1.3 fold | Cbf1ΔN (residues 209–351) (from UniProt P17106 209-351) (domain or fragment)
2 | 3.1 fold | Pho4ΔN (AA 250–312) (from UniProt P07270 250-312) (domain or fragment)
